Data on seven molecules can be found in PMC13043726, “SFPQ directs histone H3.3 deposition to R-loops in DNA repeats to protect genome stability”.

The target of data set [1] is HA-tagged DAXX, full length (UniProt Q9UER7). Kind of data set: co-immunoprecipitation (IP anti-HA, blot anti-Myc). The note with it: U-2 OS cells; parent: 1.
For the next data set, the target named is T1, SFPQ full-length (Homo sapiens, UniProt P23246 1-707).
T1 sequence: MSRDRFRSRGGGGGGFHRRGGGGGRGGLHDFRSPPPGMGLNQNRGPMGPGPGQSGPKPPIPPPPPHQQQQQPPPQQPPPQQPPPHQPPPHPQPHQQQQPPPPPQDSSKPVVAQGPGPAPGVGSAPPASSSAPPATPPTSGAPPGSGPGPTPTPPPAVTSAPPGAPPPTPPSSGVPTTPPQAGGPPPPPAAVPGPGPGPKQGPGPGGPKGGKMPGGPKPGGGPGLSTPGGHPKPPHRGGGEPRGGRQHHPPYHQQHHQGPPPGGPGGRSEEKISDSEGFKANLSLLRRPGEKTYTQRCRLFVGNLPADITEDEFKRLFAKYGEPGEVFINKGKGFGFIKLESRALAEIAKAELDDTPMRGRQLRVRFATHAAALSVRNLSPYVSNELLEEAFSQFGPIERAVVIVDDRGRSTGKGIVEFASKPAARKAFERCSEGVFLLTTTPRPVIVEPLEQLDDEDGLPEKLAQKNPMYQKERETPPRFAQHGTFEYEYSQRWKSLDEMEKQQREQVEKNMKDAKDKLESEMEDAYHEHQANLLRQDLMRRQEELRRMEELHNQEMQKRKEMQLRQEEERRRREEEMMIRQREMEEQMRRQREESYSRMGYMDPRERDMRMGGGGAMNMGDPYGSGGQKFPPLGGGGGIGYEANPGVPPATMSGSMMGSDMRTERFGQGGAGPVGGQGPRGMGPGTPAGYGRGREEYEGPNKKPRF
Kind of data set: EMSA; EMSA: 10 nM probe, 0-1600 nM SFPQ, 20 mM Tris-HCl pH 7.5, 100 mM KCl, 0.5 mM MgCl2, 0.5 mM EDTA, 0.2 mM DTT, 1% glycerol, room temperature, 30 min (RNaseOUT with RNA); 5% native PAGE, 1xTBE. The note with it: protein: recombinant, tags: N-terminal His6-myc (vector pNIC-CTHF), chain copies: 2. In general terms: Mobility shift assays separate free from complexed probe on a gel.

Where [2] appears, read: label: 5'-6-FAM on strand 1, blunt.

HA-tagged DAXX, full length, sequence (Q9UER7 whole entry): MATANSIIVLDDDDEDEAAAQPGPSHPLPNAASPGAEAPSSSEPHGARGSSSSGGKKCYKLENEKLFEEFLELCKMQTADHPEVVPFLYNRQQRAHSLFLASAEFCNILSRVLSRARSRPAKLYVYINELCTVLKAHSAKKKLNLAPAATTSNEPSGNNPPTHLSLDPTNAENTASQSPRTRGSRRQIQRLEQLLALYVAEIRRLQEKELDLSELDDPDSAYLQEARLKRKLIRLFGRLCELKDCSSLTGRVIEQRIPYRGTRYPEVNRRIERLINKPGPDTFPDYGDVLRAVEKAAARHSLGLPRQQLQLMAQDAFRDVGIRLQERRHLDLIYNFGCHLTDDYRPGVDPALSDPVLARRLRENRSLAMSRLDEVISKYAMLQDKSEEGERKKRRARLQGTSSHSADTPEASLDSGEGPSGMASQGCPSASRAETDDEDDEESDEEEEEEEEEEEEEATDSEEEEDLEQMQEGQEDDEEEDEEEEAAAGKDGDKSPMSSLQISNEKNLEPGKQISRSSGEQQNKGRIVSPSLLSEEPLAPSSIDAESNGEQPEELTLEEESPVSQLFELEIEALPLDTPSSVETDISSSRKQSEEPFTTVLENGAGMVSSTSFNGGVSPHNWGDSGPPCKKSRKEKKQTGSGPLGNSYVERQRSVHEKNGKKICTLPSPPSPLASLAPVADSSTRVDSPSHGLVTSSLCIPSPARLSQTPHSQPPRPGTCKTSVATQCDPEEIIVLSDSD

On to “SFPQ proline-rich P-domain fused to GFP and a nuclear localization signal, myc-tagged (from UniProt P23246) T150delinsKP”, for which the ratio to parent in data set [1] was determined as 0.2.

B1: 23-nt DNA:RNA hybrid (D1_B:R2_B) (DNA:RNA)
DNA: CTACTACCCCCACCCTCACAACC
RNA: GGUUGUGAGGGUGGGGGUAGUAG
In the case of B1, in the data set with SFPQ full-length (label: 5'-6-FAM on DNA strand, blunt), the binding result was “no binding”.
Regarding UUAGGGUUAGGGUUAGGGUUAGGG (ssRNA) [ssRNA TERRA [UUAGGG]4], in the data set with SFPQ full-length (label: 5'-6-FAM, single strand), the binding result is “binds”.
Still for that read-out and setting: next, GGAAUGGAAUGGAAUGGAAUGGA (ssRNA) [ssRNA Pericentric1 (SatIII [GGAAU]4)]: “binds”.
Still for that read-out and setting: next, GAAAGAAAGAAAGAAAGAAAGAA (ssRNA) [ssRNA Pericentric2 ([GAAA]5)]: “binds”.

B2: 23-nt dsDNA (D1_B:D3_B) (dsDNA)
DNA 1: CTACTACCCCCACCCTCACAACC
DNA 2: GGTTGTGAGGGTGGGGGTAGTAG
Regarding B2, the binding result in the data set with SFPQ full-length (setting [2]) is given as “no binding”.

B3: 23-nt blunt dsRNA (R1_B:R2_B) (dsRNA)
RNA 1: CUACUACCCCCACCCUCACAACC
RNA 2: GGUUGUGAGGGUGGGGGUAGUAG
For the molecule B3, in the data set with SFPQ full-length (setting [2]), the binding result is “no binding”.
